Test results from patent publication US5312736.

Target: factor Xa

Chain of Ser-(Glu15-Thr161)-EPI (chain): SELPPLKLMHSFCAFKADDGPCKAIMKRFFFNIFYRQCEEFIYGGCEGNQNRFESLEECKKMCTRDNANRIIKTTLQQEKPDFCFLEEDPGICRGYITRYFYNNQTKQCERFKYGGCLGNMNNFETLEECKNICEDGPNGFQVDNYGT
Chain of native extrinsic pathway inhibitor (EPI), entire EPI protein expressed from pCMVEPIhGH (chain): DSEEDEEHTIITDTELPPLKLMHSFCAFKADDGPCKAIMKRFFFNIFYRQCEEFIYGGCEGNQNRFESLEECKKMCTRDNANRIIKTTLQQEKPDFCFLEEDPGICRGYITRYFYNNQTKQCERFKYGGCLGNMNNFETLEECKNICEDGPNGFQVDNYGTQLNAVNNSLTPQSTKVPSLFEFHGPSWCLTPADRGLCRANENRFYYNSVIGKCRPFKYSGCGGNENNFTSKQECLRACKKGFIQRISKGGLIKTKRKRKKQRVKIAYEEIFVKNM
Chain of Ser-(Thr88-Thr161)-EPI (chain): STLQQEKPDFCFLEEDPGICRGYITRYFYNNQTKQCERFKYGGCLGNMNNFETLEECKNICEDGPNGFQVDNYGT

Substance | anti-Xa activity [U/ml], chromogenic assay (FXa, substrate S2222)
Ser-(Glu15-Thr161)-EPI | 5.6 U/ml
Ser-(Thr88-Thr161)-EPI | 0.15 U/ml
native extrinsic pathway inhibitor (EPI), entire EPI protein expressed from pCMVEPIhGH | 7.6 U/ml
